# Bridge positions count the residues as written; N and C are the ends. Square brackets hold non-standard residues; d marks the D form. MB = Monomer B = PyrS, Alloc-pyrrolidine stapling residue (allyl carbamate on pyrrolidine N); R8 = C=CCCCCCC[C@@](C)(N)C(=O)O
# T1: biotinylated beta-catenin (UniProt P35222 134-665, limits assumed, biotinylated (site not stated))
# T1 construct: also called beta-catenin (SPR); armadillo domain of β-catenin
# T1 sequence (looked up): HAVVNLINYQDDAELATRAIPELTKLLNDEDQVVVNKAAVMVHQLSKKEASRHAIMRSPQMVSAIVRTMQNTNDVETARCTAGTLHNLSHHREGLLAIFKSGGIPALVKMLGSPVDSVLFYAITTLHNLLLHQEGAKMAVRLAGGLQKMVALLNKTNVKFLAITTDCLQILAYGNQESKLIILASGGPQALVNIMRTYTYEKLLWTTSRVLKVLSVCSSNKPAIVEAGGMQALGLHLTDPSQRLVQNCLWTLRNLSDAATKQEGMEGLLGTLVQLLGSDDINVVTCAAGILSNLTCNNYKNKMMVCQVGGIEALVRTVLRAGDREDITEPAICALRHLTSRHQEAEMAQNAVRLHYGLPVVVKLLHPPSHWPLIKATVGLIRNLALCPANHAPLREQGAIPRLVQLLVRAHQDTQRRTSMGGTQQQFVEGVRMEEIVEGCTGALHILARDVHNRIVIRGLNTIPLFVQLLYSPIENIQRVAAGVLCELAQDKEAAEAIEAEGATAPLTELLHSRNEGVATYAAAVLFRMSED
# T2: full-length beta-catenin (UniProt P35222 2-781, limits assumed)
# T2 construct: mature; also called full-length ß-Catenin; β-catenin
# T2 sequence (looked up): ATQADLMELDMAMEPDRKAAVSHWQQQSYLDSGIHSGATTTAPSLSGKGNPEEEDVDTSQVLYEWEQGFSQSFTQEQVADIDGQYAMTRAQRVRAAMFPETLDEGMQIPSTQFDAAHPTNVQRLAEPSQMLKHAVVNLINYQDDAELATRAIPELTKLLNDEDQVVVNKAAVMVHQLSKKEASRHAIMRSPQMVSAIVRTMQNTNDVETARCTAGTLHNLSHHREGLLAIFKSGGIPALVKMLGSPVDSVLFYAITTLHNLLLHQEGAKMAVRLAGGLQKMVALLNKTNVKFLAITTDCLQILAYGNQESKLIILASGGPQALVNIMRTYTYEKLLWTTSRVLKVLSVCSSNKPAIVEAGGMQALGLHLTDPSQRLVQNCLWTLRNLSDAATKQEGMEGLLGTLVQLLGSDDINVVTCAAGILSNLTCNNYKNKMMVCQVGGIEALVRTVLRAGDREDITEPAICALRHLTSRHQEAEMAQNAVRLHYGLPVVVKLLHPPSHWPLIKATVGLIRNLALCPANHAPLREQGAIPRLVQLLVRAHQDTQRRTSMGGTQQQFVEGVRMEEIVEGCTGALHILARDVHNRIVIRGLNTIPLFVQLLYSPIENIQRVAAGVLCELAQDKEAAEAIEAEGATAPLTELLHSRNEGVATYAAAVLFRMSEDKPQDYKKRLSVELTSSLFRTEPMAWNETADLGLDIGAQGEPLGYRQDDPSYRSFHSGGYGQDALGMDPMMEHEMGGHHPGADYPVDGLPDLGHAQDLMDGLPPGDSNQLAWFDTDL
# Experiments:
# [1] = biological target: T1, biotinylated beta-catenin; test: SPR (Biacore, biotinylated beta-catenin)
# Method: (§1) Additionally or alternatively, binding to beta-catenin may be measured by Surface Plasmon Resonance. In an exemplary assay, approximately 6 nmol dried peptide diluted in buffer (50 mM Tris pH 8.0, 300 mM NaCl, 2% glycerol, 0.5 mM TCEP, 0.5 mM EDTA, 0.005% Tween-20, 1 mg/mL CM Dextran, 0.02% w/v sodium azide) was assayed on a Biacore X100 using the Biacore Biotin CAPture Kit (GE Healthcare) and biotinylated beta-catenin. Results were analyzed using the Biacore X100 Evaluation Software.
# full-length beta-catenin [2] = biological target: T2, full-length beta-catenin; test: competition FP
# Outline: (§2)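 Compound 3-fold serially diluted from 5 µM in Tris pH 8.0, 250 mM NaCl buffer, added to premixed 15 nM full-length β-catenin and 20 nM FITC-labelled stapled axin-site peptide probe. Incubated 15 min in the dark, polarization read in duplicate.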
# [3] = biological target: T1, biotinylated beta-catenin; test: Table 3 'Binding Kd (nM)'; method not stated there (SPR in Example 2)
# Method: as §1
# full-length beta-catenin [4] = biological target: T2, full-length beta-catenin; test: competition FP, grade of FP EC50 (+++: <=100 nM)
# Outline: as §2
# full-length beta-catenin [5] = biological target: T2, full-length beta-catenin; test: Axin competition fluorescence polarization; 15 nM full-length beta-catenin, 20 nM FITC-StAx-33 probe displaced by titrated peptide
# full-length beta-catenin [6] = biological target: T2, full-length beta-catenin; test: competition FP, grade of FP EC50 (+: 500-5000 nM); competition FP vs FITC probe, 15 nM full-length beta-catenin, peptide diluted from 5 µM; grade + (500-5000 nM EC50)
# Method: In some embodiments, a competition fluorescence polarization assay is used to assess binding of provided compounds to beta-catenin. In an exemplary procedure, solutions of provided compounds, e.g., provided stapled peptides, were prepared in a buffer (e.g., 50 mM Tris pH 8.0, 250 mM NaCl, 2% glycerol, 0.5 mM EDTA, 0.02% w/v sodium azide) using a 3-fold serial dilution from 5 µM. Probe solution (15 nM full-length ß-Catenin, 20 nM FITC labeled peptide in buffer) was prepared and incubated for a period of time, e.g., 5 minutes, and the a volume, e.g., 40 µL per well plated in suitable plate, e.g., a black polystyrene 384-well plate (Corning). Equal volume of the serial diluted peptide was added to the plate and incubated protected from light for 15 minutes prior to read. Reads were performed on a Spectramax M5 (Molecular Devices) in duplicate. Suitable probe was FITC-PEG1-PQ-S5-ILD-S5-HVRRVWR (SEQ ID NO: 1) (hydrocarbon staple formed by two S5 via olefin metathesis) and/or FITC-bA-PQ-S5-ILD-S5-HVRRVWR (SEQ ID NO: 3) (hydrocarbon staple formed by two S5 via olefin metathesis). […] Another peptide, FPO217c (Ac-AR_8ILDAHIM$B5$RVW (SEQ ID NO: 280), with N-terminal proline removed and valine replaced with isoleucine compared to FP0025c) was prepared.
Kd [1] [nM],fold better potency than FP0217c Isomer 1 (full-length beta-catenin [2]) [fold],Kd [3] [nM],FP EC50 (full-length beta-catenin [4]) [nM],EC50 (read off the curve) (full-length beta-catenin [5]) [nM],FP EC50 (full-length beta-catenin [6]) [nM],Binder
2,> 10,4,≤ 100,~70,,"Ac-A[R8]ILDAHI[MB]RVW-NH2 (staple 2-9; also: Isomer 2, staple olefin E/Z not assigned, also called FPO217c isomer 2; FP00217c Isomer 2) [FP0217c Isomer 2]"
,,,,,500 to 5000,AXILDAHIXRVW (not fully specified; Ac-A-R6-I-L-D-A-H-I-MF-R-V-W-NH2; amino staple R6/MF) [FP0502a]
4,,4,≤ 100,~60,,AXILDAHIXRVW (not fully specified; Ac-A-MG-I-L-D-A-H-I-MB-R-V-W-NH2; carbamate staple MG/MB) [FP0597c]
,,,,,500 to 5000,AXILDAHIXRVW (not fully specified; Ac-A-MI-I-L-D-A-H-I-S5-R-V-W-NH2; amino staple MI/S5) [FP0506a]

# Reference: patent US11198713B2, “Agents modulating beta-catenin functions and methods thereof” (FOG PHARMACEUTICALS, INC., priority 2017, dated 2021)
